From article PMC2581521 (2008) come the findings set out here.

The target of the assay is T1, Chordin (Xenopus laevis, UniProt Q91713).
T1 chain: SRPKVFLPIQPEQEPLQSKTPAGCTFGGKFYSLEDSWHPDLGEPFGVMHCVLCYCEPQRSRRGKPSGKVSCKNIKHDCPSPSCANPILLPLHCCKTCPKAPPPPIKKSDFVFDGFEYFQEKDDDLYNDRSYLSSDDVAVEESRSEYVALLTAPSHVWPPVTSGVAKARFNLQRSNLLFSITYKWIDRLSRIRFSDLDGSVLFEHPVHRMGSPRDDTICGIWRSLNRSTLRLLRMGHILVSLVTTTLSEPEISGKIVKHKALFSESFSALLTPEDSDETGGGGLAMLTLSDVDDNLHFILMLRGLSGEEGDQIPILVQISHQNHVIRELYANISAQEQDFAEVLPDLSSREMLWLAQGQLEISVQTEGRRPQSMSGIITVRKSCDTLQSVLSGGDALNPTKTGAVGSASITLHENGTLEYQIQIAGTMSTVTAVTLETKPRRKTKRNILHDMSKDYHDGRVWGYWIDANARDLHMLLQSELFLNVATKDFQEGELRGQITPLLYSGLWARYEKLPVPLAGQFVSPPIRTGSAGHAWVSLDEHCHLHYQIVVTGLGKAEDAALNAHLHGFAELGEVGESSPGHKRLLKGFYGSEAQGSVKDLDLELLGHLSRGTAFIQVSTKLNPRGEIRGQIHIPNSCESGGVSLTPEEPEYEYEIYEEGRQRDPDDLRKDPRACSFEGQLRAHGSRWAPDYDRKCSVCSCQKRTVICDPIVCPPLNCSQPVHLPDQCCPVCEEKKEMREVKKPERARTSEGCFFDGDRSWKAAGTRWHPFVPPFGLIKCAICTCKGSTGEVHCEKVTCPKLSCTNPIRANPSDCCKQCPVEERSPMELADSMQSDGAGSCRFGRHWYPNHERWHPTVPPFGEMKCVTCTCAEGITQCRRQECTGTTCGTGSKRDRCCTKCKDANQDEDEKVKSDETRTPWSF
The experiment in a line: SPR. A general note: Surface plasmon resonance follows binding to a sensor surface in real time, without labels.

B1: Crossveinless-2 (protein)
chain: not shown
One may read the Kd as a measure of binding affinity in units of concentration. Read a high Kd as weaker binding. On to B1, for which binding was put at a Kd of 1.37 nM. That is a single-digit nanomolar value.
